Assay [1] concerns the target T1, Human VEGF165R/NP-1 (neuropilin-1) (human, UniProt O14786 22-923).
T1 construct: Expressed from the cDNA in PAE cells (PAE/NP-1, PAE/KDR/NP-1) and COS-7 cells; also called VEGF165 receptor; clone A2
Put plainly: ^125I-VEGF121 binding and chemical cross-linking to PAE/NP-1 cells, SDS-PAGE, autoradiography. Here is the method: FIG. 8. […] The binding was carried out in the presence of 1 μg/ml heparin. […] The cells were lysed and proteins were resolved by 6% SDS-PAGE. The polyacrylamide gel was dried and exposed to X-ray film.

Assay [2] addresses T2, Human neuropilin-2 (NP-2) (human, UniProt O60462 21-931).
T2 sequence: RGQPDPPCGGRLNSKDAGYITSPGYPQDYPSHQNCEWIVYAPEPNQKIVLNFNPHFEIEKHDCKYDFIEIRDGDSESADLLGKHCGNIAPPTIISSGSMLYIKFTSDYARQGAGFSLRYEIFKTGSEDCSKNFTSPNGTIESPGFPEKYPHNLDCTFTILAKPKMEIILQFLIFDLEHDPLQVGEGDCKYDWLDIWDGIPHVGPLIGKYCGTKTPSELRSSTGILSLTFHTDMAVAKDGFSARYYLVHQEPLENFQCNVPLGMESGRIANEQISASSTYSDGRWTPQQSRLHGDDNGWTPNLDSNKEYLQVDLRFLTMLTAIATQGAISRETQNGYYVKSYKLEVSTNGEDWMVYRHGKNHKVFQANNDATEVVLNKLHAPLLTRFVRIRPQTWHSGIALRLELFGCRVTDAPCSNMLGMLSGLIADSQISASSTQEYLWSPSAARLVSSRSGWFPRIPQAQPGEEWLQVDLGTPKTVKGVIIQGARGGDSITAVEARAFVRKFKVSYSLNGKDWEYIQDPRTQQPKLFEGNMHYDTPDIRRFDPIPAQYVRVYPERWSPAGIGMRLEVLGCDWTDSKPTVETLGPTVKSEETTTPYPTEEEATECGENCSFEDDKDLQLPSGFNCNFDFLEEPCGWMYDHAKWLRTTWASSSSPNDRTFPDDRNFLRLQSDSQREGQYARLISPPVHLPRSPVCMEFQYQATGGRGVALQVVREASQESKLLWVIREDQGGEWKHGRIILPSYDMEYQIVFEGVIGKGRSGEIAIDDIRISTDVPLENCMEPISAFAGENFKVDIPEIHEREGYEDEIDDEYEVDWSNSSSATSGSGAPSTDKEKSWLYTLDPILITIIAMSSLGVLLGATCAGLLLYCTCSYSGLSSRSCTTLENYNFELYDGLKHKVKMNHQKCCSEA
Put plainly: expression cloning: one of the seven single clones positive for ^125I-VEGF165 binding to transfected COS-7 cells.
Experimental: The E. coli were sub-divided into 50 separate pools and plated onto 50 LB ampicillin dishes, with each pool representing approximately 100 clones. DNA made from these pools was transfected into COS-7 cells which were screened for ¹²⁵I-VEGF₁₆₅ binding as described above. […] Each pool was plated onto separate LB ampicillin dishes and DNA was prepared from 96 individual colonies and screened in a 96-well two dimensional grid for ¹²⁵I-VEGF₁₆₅ binding to tranfected COS-7 cells as described above. […] The seven positive plasmid clones were amplified and their DNA was analyzed by restriction enzyme digestion. […] One clone from each group was submitted for automated DNA sequencing.
E. coli transformed with the plasmid library were divided into pools.

In assay [3] the target is T1, Human VEGF165R/NP-1 (neuropilin-1). Put plainly: Scatchard analysis (LIGAND program) of ^125I-VEGF165 binding to PAE/NP-1 cells.
Experimental: Scatchard Analysis of VEGF₁₆₅ Binding to VEGF₁₆₅R/NP-1.7A. Increasing amounts of ¹²⁵I-VEGF₁₆₅ (0.1-50 ng/ml) were added to subconfluent cultures of PAE cells transfected with human VEGF₁₆₅R/NP-1 cDNA (PAE/NP-1 cells) in 48 well dishes. Non-specific binding was determined by competition with a 200-fold excess of unlabeled VEGF₁₆₅. After binding, the cells were washed, lysed and the cell-associated radioactivity was determined using a y counter.
The specific activity ranged from 40,000-100,000 cpm/ng protein. […] VEGF binding was quantitated by measuring the cell-associated radioactivity in a y-counter (Beckman, Gamma 5500). The counts represent the average of three wells. All experiments were repeated at least three times and similar results were obtained.
The target is the same in assay [4]. Put plainly: cell-based or functional assay.
In assay [5] the target is T3, Neuropilin-1 on Dunning rat prostate carcinoma AT3.1 cells (rat, UniProt Q9QWJ9 22-922).
T3 construct: whole, on cells; also called VEGF165R/NP-1 (AT3.1 cells)
As to the kind of experiment: ^125I-VEGF165 cross-linking to Dunning rat prostate carcinoma cells.

B1: Human recombinant VEGF121 (ligand, UniProt P15692-9 27-147, looked up)
chain: APMAEGGGQNHHEVVKFMDVYQRSYCHPIETLVDIFQEYPDEIEYIFKPSCVPLMRCGGCCNDEGLECVPTEESNITMQIMRIKPHQGQHIGEMSFLQHNKCECRPKKDRARQEKCDKPRR
modifications: radio-iodinated (^125I, IODO-BEADS) in the cross-linking experiments
notes: mature
Consider B1, for which the binding result in assay [1] was “no binding (tested: 10 ng/ml)”.

B2: Human recombinant VEGF165 (ligand, UniProt P15692-4 27-191, looked up)
chain: APMAEGGGQNHHEVVKFMDVYQRSYCHPIETLVDIFQEYPDEIEYIFKPSCVPLMRCGGCCNDEGLECVPTEESNITMQIMRIKPHQGQHIGEMSFLQHNKCECRPKKDRARQENPCGPCSERRKHLFVQDPQTCKCSCKNTDSRCKARQLELNERTCRCDKPRR
modifications: radio-iodinated (^125I, IODO-BEADS) in the binding and cross-linking experiments; coupled to Sepharose beads in the affinity purification
notes: mature
On to B2, for which the binding result in assay [2] and in assay [5] was “binds” throughout. The Kd (commonly the equilibrium constant for the complex coming apart) in assay [3] was around 320 pM. The “231 breast carcinoma cell motility (Boyden chamber motility assay)” value in assay [4] was 2 fold.

The values are drawn from US20030104532A1 (CHILDREN S MEDICAL CENTER, published 2003).
